# Experimental data published in the supplement of paper PMC9732359.
# ± gives the uncertainty stated by the source.
# Assay: protein stability index of a GFP-peptide fusion (yeast GPS) (PSI 1-4); higher = more stable; sorted into four equal gates, so the index is relative within each strain
# Conditions: doa10∆
# Procedure, shortened: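 Yeast carrying a pooled library were grown to mid-log phase in leucine-free medium. Each library plasmid expresses Cherry and has a tiled 17-residue yeast protein peptide fused downstream of GFP. Cells were sorted into four equal gates by GFP/Cherry ratio, and plasmids from each gate were PCR-amplified, Illumina-sequenced and assigned to strains by barcode. Summing, across gates, the read frequency times the gate number gave each peptide's protein stability index.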
row,Sequence,protein stability index
1,FKRDLLREKEDKKNSSD [YJL039C/NUP192],3.38 ± 0.13

# Same assay, conditions: pdr5∆
row,Sequence,protein stability index
1,ENDNLDNVSKNALDKLR [YCG1],3.15 ± 0.16
2,ENELVITSIPKPLTENC [RMP1],3.4 ± 0.11
3,ENENILIKAKNFLVFQG [SMC1],1.25 ± 0.12
4,ENIIQRLQAANSMEYTG [CDC53],2.32 ± 0.11
5,ENIPVALCKNRKCQFRT [POP1],2.68 ± 0.059
6,ENITNKVTEKVLTQLTA [CSI1],2.22 ± 0.037
7,ENLEESFLSKHALYLAP [SSN2],3.31 ± 0.065
8,ENSANSTVASALDTNGT [SIR4],3.18 ± 0.073
9,ENVEKKEAALKTMIKTI [SMC2],2.29 ± 0.077
10,EPAEANEENDLDVDPAK [RPB2],3.15 ± 0.19
11,EPDRDENWIHVSCLSFM [LIN1],3.07 ± 0.042
12,EPFFLVTKITDMLLHKY [SRB8],2.52 ± 0.088
13,EPIKVNVRVGQAVETVG [RPN1],2.26 ± 0.11
14,EPLAPGNDNLIKAPTVA [YLR335W/NUP2],2.77 ± 0.064
15,EPLTEIKNVIVSNRVAA [RPP0],2.1 ± 0.062
16,EPMKQLNATKISPSAPS [YAR002W/NUP60],2.91 ± 0.083
17,EPSDLRSWTLTSEMKVL [YGL100W/SEH1],2.77 ± 0.045
18,EPYVAYGYPSYSTIRQL [RPL7A],2.14 ± 0.048
19,EQDILDLIAEQVVTDYN [SSN2],3.44 ± 0.12
20,EQDPYSNASQMGNTGSG [RPB3],2.45 ± 0.14
21,EQGIELEHIDSKSEFAH [FAS2],2.15 ± 0.12
22,EQRHLKRELKRAQEEVK [RPT3],3.37 ± 0.12
23,ERAELETDEYISYTSHI [RPN1],3.19 ± 0.076
24,ERNEQEREIMNDHSKSA [SWI3],3.33 ± 0.066
25,ERPPLLPILPIQRLRLL [YOR098C/NUP1],2.36 ± 0.12
26,ERQQENLLIQRLNFNQN [SWI3],3.38 ± 0.073

row,Sequence,protein stability index
1,ERRMQVTAEDFKQAKER [RPT2],3.29 ± 0.11
2,ERSLAVKYINFGKTVKD [RPC31],3.18 ± 0.1
3,ERSLRQKYNLLHVLPTL [SNM1],1.3 ± 0.13
4,ERTKLQEHTIFTQLKKN [SNU114],2 ± 0.056
5,ESAAVYNGRGARERKTA [SNF2],2.3 ± 0.057
6,ESELSLLEETQAKLKKN [SMC4],3.37 ± 0.2
7,ESFESYHNLTTHNSYEK [RPN6],3.17 ± 0.065
8,ESGEDEAEFSLRELSCC [RRP46],3.12 ± 0.075
9,ESGLRPVSLLNSQLVGK [PCI8],3.43 ± 0.096
10,ESGLVNADLDVKDELMF [RPO21],3.27 ± 0.06
11,ESISQTPISNEQTEGEP [SRP68],3.29 ± 0.16
12,ESLQKRELLKSQVEDFT [SIR3],3.22 ± 0.054
13,ESLSEEHASLLVRDSKP [MED8],3.04 ± 0.12
14,ESNNKKYPIFTGESWVK [YDL088C/ASM4],2.59 ± 0.081
15,ETDGKHGKRRSQVVETH [YMR129W/POM152],2.93 ± 0.097
16,ETEKFALERNWPIVNSK [RPN12],3.25 ± 0.12
17,ETHPDNSNKQAVAILAD [BRR2],2.93 ± 0.049
18,ETIQADLNHVTEELQTQ [SMC2],3.21 ± 0.06
19,ETLGDILKRDFELVSDL [ECM29],3.39 ± 0.17
20,ETLNDTIERSLIEEEVE [YCS4],3.43 ± 0.082
21,ETPKSNNSLSYHSGRLL [ITC1],3.06 ± 0.12
22,ETPNQDATYDSALELVG [RPN6],2.86 ± 0.072
23,ETQPGCNEEQTLEAKIG [RPO31],3.33 ± 0.069
24,ETSSFGSMFSGDNTSDV [RRI1],3.08 ± 0.13
25,ETTTQFKATHILDFGPG [FAS1],2 ± 0.094
26,ETYVASYVVPRLYLKDQ [ECM29],1.93 ± 0.088

row,Sequence,protein stability index
1,EVCAKMPNIELYLKVIP [SSN2],2.51 ± 0.045
2,EVDSASDFISKLEYPHT [RPN3],3.09 ± 0.087
3,EVEEDDEDDDQPMISPD [SWI3],3.45 ± 0.056
4,EVGMKVQSGQIYINKSV [RET1],3.05 ± 0.073
5,EVLCSRIIEKSVRRSGA [RRP45],3.21 ± 0.076
6,EVLLAGFGRKGKAKGDI [RPS23A],3.24 ± 0.093
7,EVRILPRQRMEEVVSND [PRP8],2.73 ± 0.084
8,EVRQETQPKAEATQDDD [NUT1],3.18 ± 0.071
9,EVSMNSIFAMGLCGAGT [RPN1],1.61 ± 0.058
10,EVSQFLIENGASVRIKD [NAS6],2.39 ± 0.2
11,EVVSEAINIMNRSNDAL [FAS2],3.44 ± 0.13
12,EVWSVSWNLTGTILSSA [YGL100W/SEH1],1.5 ± 0.083
13,EVYRTSLNTKKNEKLIL [SMC3],1.96 ± 0.074
14,EVYTLVDSQGLPYNWDA [ARP7],3.56 ± 0.2
15,EWDMLNVEEEQIVPYIE [BRR2],3.41 ± 0.18
16,EWKSNHKKKRSNAAGAD [SRB8],1.72 ± 0.2
17,EYEEWQKSVSLLSSESN [YDL116W/NUP84],3.02 ± 0.077
18,FCGKKTVKRGAAGIWTC [RPL43A],1.88 ± 0.071
19,FDDACNQIWNIALNLAS [SSN2],2.88 ± 0.078
20,FDDIFQVSEVDPGRYNK [RPB8],2.75 ± 0.12
21,FDKDLERDTFSDFTFPE [DIS3],1.88 ± 0.13
22,FDKKSFFNGKALNNAIP [PRP8],1.91 ± 0.051
23,FDNKSTSEEQEALLRSL [SNF2],3.6 ± 0.18
24,FEGNVATKAINGCIFTL [PRP8],2.32 ± 0.049
25,FEIDGDVIHFEDSSILQ [PCI8],3.46 ± 0.072
26,FERIMILDPQVTRFTTW [YJL039C/NUP192],1.33 ± 0.073

row,Sequence,protein stability index
1,FERLVPRGTAKLIIHRK [SMC3],2.98 ± 0.12
2,FESSSSLPFLLRHMPLA [SSN2],1.61 ± 0.17
3,FETETEVTFKNANIFSS [FAS1],3.36 ± 0.055
4,FEWDISNSDNCPEEFAE [SNF5],3.19 ± 0.15
5,FEYEGVQDIIGNGKLSE [RPN1],2.85 ± 0.18
6,FFEMLISKSLTFSQESG [RRI2],1.45 ± 0.059
7,FFLRDTLLWNKNDKLIK [SNF5],2.04 ± 0.059
8,FFLSIYFFYASRPEYSC [YJL039C/NUP192],1.35 ± 0.13
9,FFTIDHFIQKLHTARKI [SIR2],1.71 ± 0.1
10,FFYNISSIHWNNWFSLP [SIN4],1.96 ± 0.038
11,FGHIDLAKPVFHVGFIA [RPO21],2.7 ± 0.085
12,FGIYILTQGINGKEVPL [MED1],1.45 ± 0.068
13,FGKTGDQKETKKGESEK [YOR098C/NUP1],3.4 ± 0.11
14,FHIACSVGNLEVVKSLY [NAS6],2.39 ± 0.068
15,FHIGYFKATIQILQGIC [RPO31],1.48 ± 0.035
16,FILTIATAFLGYCCVYG [COB],1.27 ± 0.11
17,FISELCSIEPIAAKLIN [YML103C/NUP188],1.34 ± 0.044
18,FITKHLPLLILENSSRS [NUT1],1.41 ± 0.067
19,FKATIQILQGICKNCSA [RPO31],1.77 ± 0.038
20,FKCQEKDKGVYVVTSDE [SIR2],3.08 ± 0.085
21,FKDVEHISFNFSMLQMA [BRR2],1.59 ± 0.056
22,FKGLETPLKARQREMAE [YLR018C/POM34],3.29 ± 0.1
23,FKKQMQTIMKMGPLSNI [SRP54],3.14 ± 0.074
24,FKLFNKYRPETAAEKKE [RPL8A],2.64 ± 0.083
25,FKRDLLREKEDKKNSSD [YJL039C/NUP192],2.92 ± 0.18
